Target: TRIM25 (UniProt Q14258)
Assay: co-immunoprecipitation, Western blot
Settings: reference: wild type 2CARD; sites S8

RIG-I 2CARD region (CARD1 and CARD2) (from UniProt O95786) S8A
binding against the reference: stronger
